Assay [1] addresses APEG-1 (Homo sapiens) (UniProt Q15772). Nature of the assay: analytical ultracentrifugation (sedimentation equilibrium).
Assay [2] deals with Aortic Preferentially Expressed Protein-1 (APEG-1), full-length construct (2-113) (human). Description: AUC; sedimentation equilibrium, dimer to monomers; 15 mM Tris-HCl pH 7.4, 0.1 M NaCl, 0.1 mM EDTA, 0.2% NaN3, 10°C; Kd from concentration-dependent Mw.
Assay [3] concerns the target ΔAPEG-1, truncated Aortic Preferentially Expressed Protein-1 (15-113) (human). The description is as above.
The target is the same in assay [4]. Description: AUC; sedimentation equilibrium, dimer to monomers; 0 mM NaCl (salt series).

In general, Kd refers to the constant that tells how readily two partners part at equilibrium. As a reminder, the stoichiometry N is a count of units in the complex or per binding partner.

Chain of Aortic Preferentially Expressed Protein-1 (APEG-1), full-length construct (2-113) (natural protein) (Q15772 2-113): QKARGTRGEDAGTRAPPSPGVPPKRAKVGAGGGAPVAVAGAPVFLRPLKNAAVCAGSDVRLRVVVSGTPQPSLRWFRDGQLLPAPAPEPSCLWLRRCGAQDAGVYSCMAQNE

On to APEG-1, Q15772, for which the Kd in assay [1] was found to be 2 µM.

Turning to “Aortic Preferentially Expressed Protein-1 (APEG-1), full-length construct (2-113) (natural protein)”, in assay [2], the Kd is 20 µM and the stoichiometry N came to 2.

With “ΔAPEG-1, truncated Aortic Preferentially Expressed Protein-1 (15-113) (domain or fragment)”, the values for the Kd in assay [3] and in assay [4] were 20 µM and 2 to 200 µM, respectively. This substance had a stoichiometry N in assay [3] of 2.

The values are drawn from PMC1352370.
